Experimental data: patent US20190201491A1 (ELANCO US, published 2019)

Target: beta Klotho and FGFR1c (Fibroblast Growth Factor Receptor isoform 1c) expressed on the cell surface of a …
Test: cell-based or functional assay

EC50 (ng/mL), STEADY-GLO Elk1 luciferase reporter assay: 38 ng/mL
Fold loss potency relative to WT bFGF21, Elk1 luciferase reporter assay: 1 fold
B1: wild-type (WT) bFGF-21 (ligand)
chain: HPIPDSSPLLQFGGQVRQRYLYTDDAQETEAHLEIRADGTVVGAARQSPESLLELKALKPGVIQILGVKTSRFLCQGPDGKLYGSLHFDPKACSFRELLLEDGYNVYQSETLGLPLRLPPQRSSNRDPAPRGPARFLPLPGLPAAPPDPPGILAPEPPDVGSSDPLSMVGPSYGRSPSYTS
